From patent US20230382991A1 (COMMISSARIAT A L ENERGIE ATOMIQUE ET AUX ENERGIES …, published 2023) come the findings set out here.

Test [1] addresses T1, cynomolgus macaque LILRB2.2-Fc fusion protein (cynomolgus macaque; human).
T1 construct: extracellular domain; Produced in HEK293T cells; also called mLILRB2.2; mLILRB2.2-Fc
Nature of the test: biolayer interferometry (ForteBio), mAb on anti-mouse Fc sensor, LILR-Fc in solution, 1:1 global fit. A general note: Biolayer interferometry detects binding as a change in optical thickness at a sensor tip.

In test [2] the target is T2, recombinant human LILRA1-Fc fusion protein (human, UniProt O75019 17-461).
T2 construct: hLILR-Fc purchased from R&D Systems; also called hLILRA1; hLILRA1-Fc; not shown: Fc part of the fusion bought from R&D Systems; captured by anti-human immunoglobulin
The description is as above.

The target of test [3] is T3, recombinant human LILRB1-Fc fusion protein (human, UniProt Q8NHL6 24-458).
T3 construct: hLILR-Fc purchased from R&D Systems; also called hLILRB1-Fc; hLILRB1; not shown: Fc part of the fusion bought from R&D Systems; detected with anti-human IgG
The description is as above.

In test [4] the target is T4, recombinant human LILRA3-Fc fusion protein (human, UniProt Q8N6C8 24-439).
T4 construct: hLILR-Fc purchased from R&D Systems; also called hLILRA3; hLILRA3-Fc; not shown: Fc part of the fusion bought from R&D Systems
Described as above.

For test [5], the target named is T5, recombinant human LILRB2-Fc fusion protein (human, UniProt Q8N423 22-457).
T5 construct: hLILR-Fc purchased from R&D Systems; also called hLILRB2-Fc; hLILRB2; not shown: Fc part of the fusion bought from R&D Systems; detected with anti-human IgG
The description is as above.

Test [6] concerns the target T6, cynomolgus macaque LILRB1.1-Fc fusion protein (cynomolgus macaque; human).
T6 construct: extracellular domain; Produced in HEK293T cells; also called mLILRB1.1; mLILRB1.1-Fc
The test is described as above.

The target in test [7] is T7, cynomolgus macaque LILRB1.2-Fc fusion protein (cynomolgus macaque; human).
T7 construct: extracellular domain; Produced in HEK293T cells; also called mLILRB1.2; mLILRB1.2-Fc
The test is described as above.

For test [8], the target named is T8, recombinant human LILRB3-Fc fusion protein (human, UniProt O75022 24-443).
T8 construct: not shown: Fc part of the fusion bought from R&D Systems
Nature of the test: EIA on hLILR-Fc captured by goat anti-human Ig on the plate; AChE-labelled goat anti-mouse antibody; absorbance (axis printed 'DO 141nm'); no blank curve on the sheet.

Test [9] concerns the target T9, recombinant human LILRA5-Fc fusion protein (human, UniProt A6NI73 42-268).
T9 construct: not shown: Fc part of the fusion bought from R&D Systems
The test is described as above.

Test [10] deals with T10, recombinant human LILRA2-Fc fusion protein (human, UniProt Q8N149 24-449).
T10 construct: not shown: Fc part of the fusion bought from R&D Systems
The description is as above.

Test [11] deals with T11, recombinant human LILRB5-Fc fusion protein (human, UniProt O75023 24-458).
T11 construct: not shown: Fc part of the fusion bought from R&D Systems
The test is described as above.

The target of test [12] is T12, recombinant human LILRA4-Fc fusion protein (human, UniProt P59901 24-446).
T12 construct: not shown: Fc part of the fusion bought from R&D Systems
Described as above.

In test [13] the target is T13, recombinant human LILRB4-Fc fusion protein (human, UniProt Q8NHJ6 22-259).
T13 construct: not shown: Fc part of the fusion bought from R&D Systems
The test is described as above.

Test [14] deals with T14, cynomolgus macaque LILRB2.1-Fc fusion protein (cynomolgus macaque; human).
T14 construct: extracellular domain; Produced in HEK293T cells; also called mLILRB2.1; mLILRB2.1-Fc
Nature of the test: biolayer interferometry (ForteBio), mAb on anti-mouse Fc sensor, LILR-Fc in solution, 1:1 global fit.

Test [15] deals with T15, human LILRB1 expressed on stably transduced CHO cells (human, UniProt Q8NHL6 24-650).
T15 construct: whole, on cells; also called hLILRB1; CHO hLILRB1 cell line
Nature of the test: flow cytometry, same method as FIG. 1B (CHO cells expressing human LILRB1). On the technique in general: A flow cytometer gives signals particle by particle.

T11 sequence (O75023 24-458): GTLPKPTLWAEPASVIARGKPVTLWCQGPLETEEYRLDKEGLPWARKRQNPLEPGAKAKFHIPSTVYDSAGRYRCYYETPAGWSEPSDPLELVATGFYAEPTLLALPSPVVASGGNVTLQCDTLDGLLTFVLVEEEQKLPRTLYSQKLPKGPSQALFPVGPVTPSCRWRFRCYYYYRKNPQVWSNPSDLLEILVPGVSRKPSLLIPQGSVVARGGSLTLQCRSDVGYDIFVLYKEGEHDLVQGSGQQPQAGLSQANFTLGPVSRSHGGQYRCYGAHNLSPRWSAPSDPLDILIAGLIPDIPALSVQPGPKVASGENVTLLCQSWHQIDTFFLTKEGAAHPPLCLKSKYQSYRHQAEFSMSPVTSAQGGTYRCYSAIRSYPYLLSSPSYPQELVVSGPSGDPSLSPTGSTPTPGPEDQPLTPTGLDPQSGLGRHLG
T12 sequence (P59901 24-446): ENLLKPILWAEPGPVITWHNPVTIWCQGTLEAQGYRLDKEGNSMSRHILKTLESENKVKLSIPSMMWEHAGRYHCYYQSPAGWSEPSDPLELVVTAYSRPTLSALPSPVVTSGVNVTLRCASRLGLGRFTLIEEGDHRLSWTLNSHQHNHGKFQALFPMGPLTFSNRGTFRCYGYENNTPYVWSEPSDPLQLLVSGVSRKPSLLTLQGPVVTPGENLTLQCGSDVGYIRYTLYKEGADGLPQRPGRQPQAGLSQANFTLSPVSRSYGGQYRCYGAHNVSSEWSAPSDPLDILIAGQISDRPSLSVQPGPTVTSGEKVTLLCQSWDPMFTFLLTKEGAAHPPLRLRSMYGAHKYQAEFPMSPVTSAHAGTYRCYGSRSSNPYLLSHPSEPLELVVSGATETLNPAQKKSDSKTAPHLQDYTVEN
T10 sequence (Q8N149 24-449): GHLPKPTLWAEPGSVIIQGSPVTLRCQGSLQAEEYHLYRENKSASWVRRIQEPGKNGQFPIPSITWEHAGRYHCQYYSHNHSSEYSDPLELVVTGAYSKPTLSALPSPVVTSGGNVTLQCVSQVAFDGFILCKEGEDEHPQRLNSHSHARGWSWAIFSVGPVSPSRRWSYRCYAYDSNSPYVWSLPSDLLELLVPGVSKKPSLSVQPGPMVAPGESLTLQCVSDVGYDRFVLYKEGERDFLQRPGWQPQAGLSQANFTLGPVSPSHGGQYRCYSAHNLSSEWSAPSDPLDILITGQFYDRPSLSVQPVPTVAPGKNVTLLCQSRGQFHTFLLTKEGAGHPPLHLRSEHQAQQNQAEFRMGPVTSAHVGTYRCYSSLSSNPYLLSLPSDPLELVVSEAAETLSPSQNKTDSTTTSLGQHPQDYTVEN
T8 sequence (O75022 24-443): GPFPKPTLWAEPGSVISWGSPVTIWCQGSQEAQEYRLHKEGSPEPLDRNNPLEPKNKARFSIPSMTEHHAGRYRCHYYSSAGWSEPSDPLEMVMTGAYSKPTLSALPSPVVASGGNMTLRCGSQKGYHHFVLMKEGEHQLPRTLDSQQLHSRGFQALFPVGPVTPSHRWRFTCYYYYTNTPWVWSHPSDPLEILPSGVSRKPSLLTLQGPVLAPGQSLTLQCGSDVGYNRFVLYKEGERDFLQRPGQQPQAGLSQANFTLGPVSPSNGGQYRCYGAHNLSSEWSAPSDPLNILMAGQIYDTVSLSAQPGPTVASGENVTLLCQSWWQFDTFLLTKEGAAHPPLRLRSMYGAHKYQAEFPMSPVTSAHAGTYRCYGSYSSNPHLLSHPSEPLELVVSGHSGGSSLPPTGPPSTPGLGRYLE
T9 sequence (A6NI73 42-268): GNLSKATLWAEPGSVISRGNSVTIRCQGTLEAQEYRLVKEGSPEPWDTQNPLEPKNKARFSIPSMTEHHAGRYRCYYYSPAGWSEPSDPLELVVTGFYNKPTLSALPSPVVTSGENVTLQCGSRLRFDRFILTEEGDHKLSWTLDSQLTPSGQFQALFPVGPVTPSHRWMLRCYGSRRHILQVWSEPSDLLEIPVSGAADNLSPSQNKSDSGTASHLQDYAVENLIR
T2 sequence (O75019 17-461): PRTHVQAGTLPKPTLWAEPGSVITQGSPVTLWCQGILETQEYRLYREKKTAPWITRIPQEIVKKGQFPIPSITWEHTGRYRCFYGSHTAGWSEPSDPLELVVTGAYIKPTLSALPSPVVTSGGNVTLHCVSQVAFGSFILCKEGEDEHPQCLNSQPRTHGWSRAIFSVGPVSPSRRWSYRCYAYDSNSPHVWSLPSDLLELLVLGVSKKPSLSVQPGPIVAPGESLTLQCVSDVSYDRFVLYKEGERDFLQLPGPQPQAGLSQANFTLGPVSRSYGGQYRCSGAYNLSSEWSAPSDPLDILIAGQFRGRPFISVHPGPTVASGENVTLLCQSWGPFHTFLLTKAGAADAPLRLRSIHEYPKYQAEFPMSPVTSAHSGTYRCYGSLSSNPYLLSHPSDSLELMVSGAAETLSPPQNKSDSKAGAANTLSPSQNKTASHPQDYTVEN
T4 sequence (Q8N6C8 24-439): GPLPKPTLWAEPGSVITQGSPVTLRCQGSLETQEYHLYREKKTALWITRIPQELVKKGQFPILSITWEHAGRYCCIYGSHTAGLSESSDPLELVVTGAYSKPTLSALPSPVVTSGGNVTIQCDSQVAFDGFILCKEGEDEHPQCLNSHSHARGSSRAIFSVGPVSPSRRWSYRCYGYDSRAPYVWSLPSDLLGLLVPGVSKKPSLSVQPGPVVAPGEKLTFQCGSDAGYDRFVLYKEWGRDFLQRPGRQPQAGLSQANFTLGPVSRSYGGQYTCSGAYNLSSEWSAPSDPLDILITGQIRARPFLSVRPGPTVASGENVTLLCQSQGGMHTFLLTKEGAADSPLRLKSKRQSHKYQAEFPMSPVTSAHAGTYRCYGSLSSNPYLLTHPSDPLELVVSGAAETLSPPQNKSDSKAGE
T3 sequence (Q8NHL6 24-458): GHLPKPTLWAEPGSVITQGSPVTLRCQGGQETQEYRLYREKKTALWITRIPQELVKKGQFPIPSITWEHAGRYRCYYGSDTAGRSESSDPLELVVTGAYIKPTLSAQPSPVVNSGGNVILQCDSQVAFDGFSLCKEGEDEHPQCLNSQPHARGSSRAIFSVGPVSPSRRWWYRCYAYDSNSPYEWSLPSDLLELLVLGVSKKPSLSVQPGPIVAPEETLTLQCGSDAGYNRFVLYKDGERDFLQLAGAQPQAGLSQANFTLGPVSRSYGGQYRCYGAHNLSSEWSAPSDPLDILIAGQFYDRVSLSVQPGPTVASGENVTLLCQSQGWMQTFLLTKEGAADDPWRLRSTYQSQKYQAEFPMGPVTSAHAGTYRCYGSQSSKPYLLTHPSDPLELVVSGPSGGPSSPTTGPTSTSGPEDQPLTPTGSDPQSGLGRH
T5 sequence (Q8N423 22-457): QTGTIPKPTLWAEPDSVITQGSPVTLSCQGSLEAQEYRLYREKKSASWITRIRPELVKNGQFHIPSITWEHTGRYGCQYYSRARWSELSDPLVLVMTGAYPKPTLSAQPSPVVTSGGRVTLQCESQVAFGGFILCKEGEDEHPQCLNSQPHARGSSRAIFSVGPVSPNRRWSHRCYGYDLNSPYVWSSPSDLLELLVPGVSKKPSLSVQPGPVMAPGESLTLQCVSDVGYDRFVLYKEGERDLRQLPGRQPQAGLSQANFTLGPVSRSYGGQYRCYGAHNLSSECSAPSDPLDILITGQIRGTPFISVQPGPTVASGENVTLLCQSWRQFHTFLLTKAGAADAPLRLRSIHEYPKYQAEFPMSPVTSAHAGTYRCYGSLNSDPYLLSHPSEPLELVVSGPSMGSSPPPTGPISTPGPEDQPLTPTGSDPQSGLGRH
T15 sequence (Q8NHL6 24-650): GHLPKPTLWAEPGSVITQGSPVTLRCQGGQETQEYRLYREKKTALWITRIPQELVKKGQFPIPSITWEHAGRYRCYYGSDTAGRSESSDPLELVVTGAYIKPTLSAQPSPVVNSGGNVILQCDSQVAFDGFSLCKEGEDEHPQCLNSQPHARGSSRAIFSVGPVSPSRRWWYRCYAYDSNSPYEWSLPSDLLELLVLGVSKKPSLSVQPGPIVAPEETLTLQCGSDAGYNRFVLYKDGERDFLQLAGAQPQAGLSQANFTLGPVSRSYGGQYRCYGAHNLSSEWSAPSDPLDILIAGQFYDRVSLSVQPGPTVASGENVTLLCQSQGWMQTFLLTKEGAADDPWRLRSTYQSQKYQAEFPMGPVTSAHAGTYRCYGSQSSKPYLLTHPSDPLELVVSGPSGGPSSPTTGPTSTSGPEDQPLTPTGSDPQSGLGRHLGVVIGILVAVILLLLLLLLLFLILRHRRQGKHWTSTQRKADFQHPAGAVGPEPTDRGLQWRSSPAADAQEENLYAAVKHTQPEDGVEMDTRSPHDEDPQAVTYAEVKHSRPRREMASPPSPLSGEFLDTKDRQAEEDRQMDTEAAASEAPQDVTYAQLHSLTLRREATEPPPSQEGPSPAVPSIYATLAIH

B1: B1.2.1 monoclonal antibody (antibody, V domains shown)
VH: EVQLVESGGGLVQPKGSLKLSCAASGFTFNTHAMHWVRQAPGKGLEWVARIRSKSSNYATFYADSVKDRFTISRDDSQSMLYLQMNNLKTEDTAIYFCVMVYYGNSPYYSMDYWGQGTSVTVSS
VL: NIVMTQSPKSMSMSVGERVTLSCKASENVGTYVSWYQQKPEQSPKLLIYGASNRYTGVPDRFTGSGSATDFTLIINNIQAEDLADYHCGQSYSSPLTFGAGTKLELK
notes: Mouse monoclonal antibody purified from hybridoma supernatant (immunisation with mLILRB1.2-Fc); also called B1.2.1 mAb
In general, Kd refers to the equilibrium constant for the complex coming apart. B1: the Kd in test [1] is 2900 pM; in [2], 730 pM; in test [3], 530 pM; in test [4] it was 1300 pM; in test [5], 140 pM; in test [6], 3.9 pM. Besides, the Kd in test [7] worked out at 14 pM. For the same molecule, the binding result in [8], in test [9], in [10], in [11], in [12] and in test [13] was “no binding (tested: 10 µg/ml)” each time.

B2: B1.2.2 monoclonal antibody (antibody, V domains shown)
VH: EVQLVESGGGLVKPGGSLKLSCAASGFTFSDYGMHWVRQAPEKGLEWVAYISSGSSTSYYADTVKGRFTISRDDAKNTLFLQMTSLRSEDTAMYYCARPGSNWDVYYAMDYWGQGTSVTVSS
VL: DIVLTQSPASLAVSLGQRATISCRASQSVSTSSYSYMHWYQQKPGQPPKLLIKNASNLESGVPARFSGSGSGTDFTLNIHPVEEEDTATYYCQHSWEIPFTFGGGTKLEIK
notes: Mouse monoclonal antibody purified from hybridoma supernatant (immunisation with mLILRB1.2-Fc); also called B1.2.2 mAb; clone 20G10
Take B2: the Kd in test [1] worked out at 71 pM; in test [2], 370 pM; in test [3] it was 870 pM; in test [4], 3200 pM; in test [14], 480 pM; in [6], 3600 pM. Besides, the Kd in test [7] amounted to 120 pM. In addition, the binding result in [8], in test [9], in test [10], in [11], in test [12] and in [13] was “no binding (tested: 10 µg/ml)” in each case.

B3: BF14 humanized antagonist antibody of Family AB2 (antibody, V domains shown)
VH: QVQLVESGGGVVQPGRSLRLSCAASGFTFSDYGMHWVRQAPGKGLEWVAYISSGSSTSYYADTVKGRFTISRDDSKNTLYLQMNSLRAEDTAVYYCARPGSNWDVYYAMDYWGQGTLVTVSS
VL: DIQLTQSPSSLSASVGDRVTITCRASQSVSTSSYSYMHWYQQKPGKAPKLLIKNASNLESGVPSRFSGSGSGTDFTLTISSLQPEDFATYYCQHSWEIPFTFGPGTKVDIK
Consider B3, for which the binding result in test [15] is given as “binds”.
